T1: Tse1-His6 (purified Tse1, PA1844, with C-terminal hexahistidine tag) (Pseudomonas aeruginosa PAO1, UniProt Q9I2Q1 1-154)
T1 construct: not shown: C-terminal hexahistidine tag (six His) from pET29b+
T1 sequence: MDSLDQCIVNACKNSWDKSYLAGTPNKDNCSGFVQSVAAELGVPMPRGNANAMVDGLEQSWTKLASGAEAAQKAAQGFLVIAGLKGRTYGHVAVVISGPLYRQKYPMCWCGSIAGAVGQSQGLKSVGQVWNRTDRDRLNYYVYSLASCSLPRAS

T2: Tse3-His6 (purified Tse3, PA3484, with C-terminal hexahistidine tag) (Pseudomonas aeruginosa PAO1, UniProt Q9HYC5 1-408)
T2 construct: not shown: C-terminal hexahistidine tag (six His) from pET29b+
T2 sequence: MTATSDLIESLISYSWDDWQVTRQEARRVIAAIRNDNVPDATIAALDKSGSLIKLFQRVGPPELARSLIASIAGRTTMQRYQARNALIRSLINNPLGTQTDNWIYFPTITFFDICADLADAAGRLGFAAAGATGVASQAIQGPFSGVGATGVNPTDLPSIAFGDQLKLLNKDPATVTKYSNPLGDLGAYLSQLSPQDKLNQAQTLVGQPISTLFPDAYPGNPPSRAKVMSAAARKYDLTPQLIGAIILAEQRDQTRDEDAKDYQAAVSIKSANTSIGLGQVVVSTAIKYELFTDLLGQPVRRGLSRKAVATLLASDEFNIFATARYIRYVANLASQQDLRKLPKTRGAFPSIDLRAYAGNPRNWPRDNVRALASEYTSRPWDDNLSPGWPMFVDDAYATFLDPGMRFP

B1: Tsi1-V (type VI secretion immunity protein 1 fused to the VSV-G epitope) (other)
chain: ADCTFTQLEIVPQFGSPNMFGGEDEHVRVMFSNEDPNDDNPDAFPEPPVYLADRDSGNDCRIEDGGIWSRGGVFLSQDGRRVLMHEFSGSSAELVSYDSATCKVVHREDISGQRWAVDKDGLRLGQKCSGESVDSCAKIVKRSLAPFCQTAKK
B2: Tsi3-V (type VI secretion immunity protein 3 fused to the VSV-G epitope) (other)
chain: CTAESGVDFDKTLTHPNGLVVERPVGFDARRSAEGFRFDEGGKLRNPRQLEVQRQDAPPPPDLASRRLGDGEARYKVEEDDGGSAGSEYRLWAAKPAGARWIVVSASEQSEDGEPTFALAWALLERARLQ

Legend:
[1] = target: T1, Tse1-His6 (purified Tse1, PA1844, with …); assay: co-immunoprecipitation (FIG. 17a)
[2] = target: T2, Tse3-His6 (purified Tse3, PA3484, with …); assay: co-immunoprecipitation (FIG. 17a)

Binder	binding result [1]	binding result [2]
B1	binds	–
B2	–	binds

Reference: patent publication US20110311499A1 (University of Washington, published 2011)
